Holding throughout (assay): EMSA
For data set [1], the target named is T1, CSB-HD (helicase-like domain) (human, UniProt Q03468 498-1002).
Data set [2] addresses T1, CSB-HD (helicase-like domain). The source holds these as a separate data set.
The target is the same in data set [3]. The source holds these as a separate data set.
For data set [4] the target is unchanged. This is another data set of the same source.
Data set [5] has the same target. The source holds these as a separate data set.

Like-named read-outs stand apart in the source and are kept apart here.

T1 sequence (Q03468 498-1002): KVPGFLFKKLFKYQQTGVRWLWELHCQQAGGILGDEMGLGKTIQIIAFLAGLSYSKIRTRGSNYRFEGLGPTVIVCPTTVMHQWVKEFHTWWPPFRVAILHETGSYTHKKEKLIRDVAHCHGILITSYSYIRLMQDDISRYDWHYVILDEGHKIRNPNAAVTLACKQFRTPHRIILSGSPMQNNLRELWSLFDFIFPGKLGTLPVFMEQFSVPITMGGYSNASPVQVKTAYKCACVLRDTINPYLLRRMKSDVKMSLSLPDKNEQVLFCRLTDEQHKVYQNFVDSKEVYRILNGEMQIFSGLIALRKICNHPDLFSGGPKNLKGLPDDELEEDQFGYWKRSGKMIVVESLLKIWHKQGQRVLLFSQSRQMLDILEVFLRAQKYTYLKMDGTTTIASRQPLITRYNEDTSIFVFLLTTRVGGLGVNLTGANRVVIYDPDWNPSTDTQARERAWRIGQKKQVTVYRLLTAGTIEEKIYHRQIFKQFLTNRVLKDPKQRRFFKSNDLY

In data set [1], 3'-tailed rDNA had a dissociation constant (Kd) of 0.176 nM.

Consider “5'-tailed rDNA, annealed in KCl (intermolecular G4)”, for which the dissociation constant Kd in data set [1] amounted to 0.557 nM.

For the molecule AGGGTCGGGGGGTGGGGCCCGGGCCGGGG (structured_DNA) [untailed rDNA-2], the binding result in data set [2] is “no binding”.

With ATAATTATAAATAAATAATAGGGTCGGGGGGTGGGGCCCGGGCCGGGG (structured_DNA) [5'-tailed rDNA-2], in data set [3], binding was characterised by a dissociation constant (Kd) of 0.36 nM.

Turning to TGAGGGTGGGTAGGGTGGGTAA (structured_DNA) [untailed c-MYC], the binding result in data set [2] is “no binding”.

Take AAATGGGTGGGTAGGGTGGGTATAATTATAAATAAATAATA (structured_DNA) [3'-tailed c-MYC]: in data set [4], the binding result was “no binding”.

In the case of ATAATTATAAATAAATAATGGGGTTTTGGGG (structured_DNA) [5'-tailed O. nova d(G4T4G4)], in data set [5], binding was characterised by a dissociation constant (Kd) of 0.00988 nM.

ATAATTATAAATAAATAATAGGGAGGGAGACGGGGGGG (structured_DNA) [5'-tailed rDNA-3] showed an equilibrium dissociation constant (Kd) in data set [3] of 0.977 nM.

Source of the values: article doi:10.1101/2021.03.25.436565.
